# B1: γ-PAK activated by autophosphorylation in the presence of Cdc42(GTPγS) (protein)
# chain: SDNGELEDKPPAPPVRMSSTIFSTGGKDPLSANHSLKPLPSVPEEKKPRNKIISIFSGTEKGSKKKEKERPEISPPSDFEHTIHVGFDAVTGEFTGMPEQWARLLQTSNITKLEQKKNPQAVLDVLKFYDSNTVKQKYLSFTPPEKDGFPSGAPALNTKVSETSAVVTEEDDDDEEAAPPVIAPRPDHTKSIYTRSVIDPIPAPVGDSHVDSGAKSSDKQKKKTKMTDEEIMEKLRTIVSIGDPKKKYTRYEKIGQGASGTVFTATDVALGQEVAIKQINLQKQPKKELIINEILVMKELKNPNIVNFLDSYLVGDELFVVMEYLAGGSLTDVVTETCMDEAQIAAVCRECLQALEFLHANQVIHRDIKSDNVLLGMEGSVKLTDFGFCAQITPEQSKRSTMVGTPYWMAPEVVTRKAYGPKVDIWSLGIMAIEMVEGEPPYLNENPLRALYLIATNGTPELQNPEKLSPIFRDFLNRCLEMDVEKRGSAKELLQHPFLKLAKPLSSLTPLIMAAKEAMKSNR
# B2: Inactive γ-PAK (protein)
# chain: B1 chain
# Columns and labels:
# [1] = biological target: T1, AARASAA
# T1 chain: AARASAA
# [2] = biological target: T2, AKRASPA
# T2 chain: AKRASPA
# [3] = biological target: T3, AKRASAA
# T3 chain: AKRASAA
# [4] = biological target: T4, ARKASAA
# T4 chain: ARKASAA
# [5] = biological target: T5, AKRKSAA
# T5 chain: AKRKSAA
# [6] = biological target: T6, AAAASKR
# T6 chain: AAAASKR
# [7] = biological target: T7, AKAASAA
# T7 chain: AKAASAA
# [8] = biological target: T8, KKRASAA
# T8 chain: KKRASAA
# [9] = biological target: T9, KKRKSAA
# T9 chain: KKRKSAA
# [10] = biological target: T10, AKRESAA
# T10 chain: AKRESAA
# [11] = biological target: T11, KKAASAA
# T11 chain: KKAASAA
# [12] = biological target: T12, RKKKSAA
# T12 chain: RKKKSAA
# [13] = biological target: T13, AAKKSAA
# T13 chain: AAKKSAA
# [14] = biological target: T14, ARRASAA
# T14 chain: ARRASAA
# [15] = biological target: T15, PKRASAA
# T15 chain: PKRASAA
# [16] = biological target: T16, AAKRSAA
# T16 chain: AAKRSAA
# [17] = biological target: T17, EKRASAA
# T17 chain: EKRASAA
# [18] = biological target: T18, AKRASEA
# T18 chain: AKRASEA
# [19] = biological target: T19, AKRPSAA
# T19 chain: AKRPSAA
# [20] = biological target: all peptides
Protein,"rel rate (%), Cdc42-activated (KKRKSAA = 100) [1] [%]","rel rate (%), Cdc42-activated (KKRKSAA = 100) [2] [%]","rel rate (%), Cdc42-activated (KKRKSAA = 100) [3] [%]","rel rate (%), Cdc42-activated (KKRKSAA = 100) [4] [%]","rel rate (%), Cdc42-activated (KKRKSAA = 100) [5] [%]","rel rate (%), Cdc42-activated (KKRKSAA = 100) [6] [%]","rel rate (%), Cdc42-activated (KKRKSAA = 100) [7] [%]","rel rate (%), Cdc42-activated (KKRKSAA = 100) [8] [%]","rel rate (%), Cdc42-activated (KKRKSAA = 100) [9] [%]","rel rate (%), Cdc42-activated (KKRKSAA = 100) [10] [%]","rel rate (%), Cdc42-activated (KKRKSAA = 100) [11] [%]","rel rate (%), Cdc42-activated (KKRKSAA = 100) [12] [%]","rel rate (%), Cdc42-activated (KKRKSAA = 100) [13] [%]","rel rate (%), Cdc42-activated (KKRKSAA = 100) [14] [%]","rel rate (%), Cdc42-activated (KKRKSAA = 100) [15] [%]","rel rate (%), Cdc42-activated (KKRKSAA = 100) [16] [%]","rel rate (%), Cdc42-activated (KKRKSAA = 100) [17] [%]","rel rate (%), Cdc42-activated (KKRKSAA = 100) [18] [%]","rel rate (%), Cdc42-activated (KKRKSAA = 100) [19] [%]",activity relative to the activated forms [20]
B1,56,3,189,9,158,0,3,181,100,295,3,3,0,134,184,0,151,88,11,–
B2,–,–,–,–,–,–,–,–,–,–,–,–,–,–,–,–,–,–,–,<5% of the activity of the activated forms with all peptides

# Reference: patent US20030088057
